Series [1] deals with T1, ERα(PKA)-strep phosphopeptide (fluorescein-labeled, pT594, with C-terminal strep-tag) (human (from the printed UniProt entry)). The experiment in a line: fluorescence polarisation; fluorescence anisotropy; 14-3-3ζ titrated (2-fold series from 300 μM) to 2 nM fluorescein-labeled ERα peptide; 20 mM HEPES pH 7.5, 150 mM NaCl, 10 mM MgCl2, 0.1% Tween20, 0.1% BSA; room temperature; apparent. A general note: Polarisation of emitted light reports the rotation of a fluorescent probe.

The target in series [2] is T1, ERα(PKA)-strep phosphopeptide (fluorescein-labeled, pT594, with C-terminal strep-tag) (human). The experiment in a line: fluorescence polarisation; as a13 in the presence of a 2-fold dilution series of 3′de-Ac FC-A (0.015–250 μM); cooperativity analysis of the ternary 14-3-3/peptide/FC-A complex.
Series [3] has as its target ERα(PKA) phosphopeptide (fluorescein-labeled C-terminal peptide mimic with F591R/P592R, pT594) (human (from the printed UniProt entry)). Described as above.
Series [4] deals with T2, 14-3-3ζ-strep (human, UniProt P63104 1-245).
T2 chain: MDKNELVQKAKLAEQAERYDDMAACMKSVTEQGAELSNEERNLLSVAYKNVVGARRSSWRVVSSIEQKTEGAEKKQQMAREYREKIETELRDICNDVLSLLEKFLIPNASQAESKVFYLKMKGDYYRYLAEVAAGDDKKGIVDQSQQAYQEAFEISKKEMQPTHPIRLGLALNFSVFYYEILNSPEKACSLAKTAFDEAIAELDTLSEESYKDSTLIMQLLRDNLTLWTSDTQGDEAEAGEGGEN
The experiment in a line: AUC; sedimentation velocity, 20 °C, 20 mM HEPES pH 7.5, 150 mM NaCl, 10 mM MgCl2, 0.5 mM TCEP; 10 μM single proteins, 10 or 30 μM complex; complex also with added 14-3-3ζ (up to six equivalents) or 20 μM E2 or 4-OHT; KD estimated from peak areas (KD = [A][B]/[AB]), dimer to dimer.

For series [5], the target named is ERα LBD-F domain, PKA-responsive (F591R/P592R), phosphorylated at T594, as in the co-purified ERα/14-3-3ζ complex after SUMO cleavage (human (from the printed UniProt entry)) (UniProt P03372). The description is as above.
Series [6] addresses T2, 14-3-3ζ-strep. As to the kind of experiment: quantitative LC-QToF-MS of the purified complex; concentrations of 14-3-3ζ and ERα in dilutions of the purified complex read from calibration series of 14-3-3ζ-strep and ERα-pT594-strep.
Series [7] has as its target fluorescein-labeled SRC-1 cofactor peptide (LXXLL motif of SRC-1/NCoA-1). The experiment in a line: fluorescence polarisation; as a10 but in the presence of 100 μM E2; apparent KD.
Series [8] shares this target. The experiment in a line: fluorescence polarisation; fluorescence anisotropy; ERα or complex titrated (2-fold series from 40 μM ERα) to 20 nM fluorescein-labeled SRC1 peptide; DMSO control; 20 mM HEPES pH 7.5, 150 mM NaCl, 10 mM MgCl2, 0.1% Tween20, 0.1% BSA; room temperature; apparent KD (4PL fit).
Series [9] concerns the molecule itself. As to the kind of experiment: SEC; analytical SEC, Superdex200 increase 3.2/300, 20 mM Tris pH 7.5, 150 mM NaCl, 10 mM MgCl2, 0.5 mM TCEP; 10 μM 14-3-3ζ, 10 μM ERα-strep, 20 μM complex; BSA as size reference.
The target in series [10] is T2, 14-3-3ζ-strep. The experiment in a line: FP.
Series [11] addresses T2, 14-3-3ζ-strep. As to the kind of experiment: FP.
Series [12] has as its target T3, 14-3-3ζ-strep (human), P63104.
T3 chain: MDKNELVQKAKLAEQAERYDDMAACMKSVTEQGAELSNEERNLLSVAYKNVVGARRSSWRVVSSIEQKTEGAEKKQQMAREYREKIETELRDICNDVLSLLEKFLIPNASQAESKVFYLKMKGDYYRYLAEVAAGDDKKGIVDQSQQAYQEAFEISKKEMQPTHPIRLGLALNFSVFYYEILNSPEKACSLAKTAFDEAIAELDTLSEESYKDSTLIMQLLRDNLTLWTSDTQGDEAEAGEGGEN
The experiment in a line: SEC; analytical SEC, Superdex200 increase 3.2/300, 20 mM Tris pH 7.5, 150 mM NaCl, 10 mM MgCl2, 0.5 mM TCEP; 10 μM 14-3-3ζ, 10 μM ERα-strep, 20 μM complex; BSA as size reference. The conditions noted are these: remark: other sources report otherwise. (Size exclusion chromatography separates by hydrodynamic size, large species first.)

The target is the same in series [13]. The experiment in a line: AUC; sedimentation velocity, 20 °C, 20 mM HEPES pH 7.5, 150 mM NaCl, 10 mM MgCl2, 0.5 mM TCEP; 10 μM single proteins, 10 or 30 μM complex; complex also with added 14-3-3ζ (up to six equivalents) or 20 μM E2 or 4-OHT; KD estimated from peak areas (KD = [A][B]/[AB]), dimer to dimer. As to conditions: remark: other sources report otherwise.

A word on the stoichiometry N: it is a count of units in the complex or per binding partner.

Where no end group is shown, it is not given here. [ ]: non-standard residue; d: D form. pT = C[C@@H](OP(=O)(O)O)[C@H](N)C(=O)O

Consider “14-3-3ζ-strep (from UniProt P63104 1-245) (natural protein)”, for which, in series [1], the fold reduction in binding affinity against the ERα peptide without strep-tag turned out to be 50 fold. For the same molecule, the cooperativity factor (α) of FC-A stabilisation in series [2] amounted to 15; in series [3], 366.

On to “ERα LBD-F domain, PKA-responsive (F591R/P592R), phosphorylated at T594, as in the co-purified ERα/14-3-3ζ complex after SUMO cleavage (from UniProt P03372 302-595) (domain or fragment)”, for which, in the series with 14-3-3ζ-strep [4], the Kd is 32 nM and the stoichiometry N (ERα:14-3-3ζ (2:2)) is 1. Also, the stoichiometry N in series [5] is 2. The stoichiometry N in the series with 14-3-3ζ-strep [6] was 1 ERα:14-3-3ζ.

As for “ERα/14-3-3ζ protein complex (tetramer of an ERα homodimer and a 14-3-3ζ homodimer) (from UniProt P03372 302-595; P63104 1-245)”, the Kd in [7] stood at 600 nM; in [8], 9600 nM.

B1: ERαLBD-F-strep (PKA-responsive, non-phosphorylated) (domain or fragment, human (from the printed UniProt entry), UniProt P03372 302-595, looked up)
chain: KKNALALSLTADQMVSALLDAEPPILYSEYDPTRPFSEASMMGLLTNLADRELVHMINWAKRVPGFVDLTLHDQVHLLECAWLEILMIGLVWRSMEHPGKLLFAPNLLLDRNQGKCVEGMVEIFDMLLATSSRFRMMNLQGEEFVCLKSIILLNSGVYTFLSSTLKSLEEKDHIHRVLDKITDTLIHLMAKAGLTLQQQHQRLAQLLLILSHIRHMSNKGMEHLYSMKCKNVVPLYDLLLEMLDAHRLHAPTSRGGASVEETDQSHLATAGSTSSHSLQKYYITGEAEGRRATV
notes: also called ERα-strep; ERα(PKA)-strep; source: E. coli NiCo21 (DE3), purified (Ni-NTA, SUMO cleavage, Strep-Tactin, SEC); not shown: His tag, N-terminal, cleaved; SUMO, N-terminal, cleaved; strep-tag, C-terminal, kept
In the case of B1, the “stoichiometry N” value in series [9] is 2.

AEGFPA[pT]V (also: fluorescein label, position not given here) [WT ERα phosphopeptide (fluorescein-labeled C-terminal peptide mimic, pT594)] returned a Kd with 14-3-3ζ-strep [10] of 2200 nM.

AEGRRA[pT]VPWSHPQFEK (also: fluorescein label, position not given here) [ERα(PKA)-strep phosphopeptide (fluorescein-labeled, pT594, with C-terminal strep-tag)] showed a Kd with 14-3-3ζ-strep [11] of 14000 nM.

B2: 14-3-3ζ-strep, P63104 1-245 (natural protein)
chain: MDKNELVQKAKLAEQAERYDDMAACMKSVTEQGAELSNEERNLLSVAYKNVVGARRSSWRVVSSIEQKTEGAEKKQQMAREYREKIETELRDICNDVLSLLEKFLIPNASQAESKVFYLKMKGDYYRYLAEVAAGDDKKGIVDQSQQAYQEAFEISKKEMQPTHPIRLGLALNFSVFYYEILNSPEKACSLAKTAFDEAIAELDTLSEESYKDSTLIMQLLRDNLTLWTSDTQGDEAEAGEGGEN
On to B2, for which the stoichiometry N in [12] and in series [13] was 2 in each case.

In the series with 14-3-3ζ-strep [10], AEGRRA[pT]V (also: fluorescein label, position not given here) [ERα(PKA) phosphopeptide (fluorescein-labeled C-terminal peptide mimic with F591R/P592R, pT594)] registered a Kd of 300 nM.

(Values after article PMC10302166, “Molecular basis and dual ligand regulation of tetrameric estrogen receptor α/14-3-3ζ protein complex” (The Journal of Biological Chemistry, 2023).)
